The record followed here is US6861508B2, “Transcriptional intermediary factor-2” (Institut National de la Sante et de la Recherche Medicale, priority 1996, dated 2005).

Data set [1] deals with AF-2 activity of ER, RXRα and RARα. Nature of the data set: dominant negative effect on NR AF-2 activity, (17m)5-TATA-CAT reporter. The data set is classed as cell-based. As to conditions: HeLa and Cos-1 cells. An excerpt:
FIG. 12(a-d). The isolated nuclear receptor-interacting domain (ND) of TIF2 acts dominant-negatively on the transcriptional activation by the ER, RXR and RAR LBDs. The mean value of induction obtained from the quantitation of at least three experiments (relative to the respective receptor LBD activity in absence of recombinant TIF2) is indicated below each panel. Expression levels of TIF2, TIF2.1 and TIF2.5 were routinely verified by Western blot with mouse monoclonal antibody 3Ti3C11 directed against a region of TIF2.5 (not shown).
(b-d) Full length TIF2 and the coactivator fragment TIF2.1 enhance, whereas the nuclear receptor interacting domain TJF2.5 blocks the activity of the ER, RXR and RAR LBDs. Cos-1 and HeLa cells were cotransfected with 1 μg of the (17m)5-TATA-CAT reporter and 0.2 μg of the expression vector encoding the respective GAL DBD-fusion of hERα(EF), mRXRα(DE) or mRARα(DEF).
Assuming that TIF2 or coactivators recognizing the TIF2 interacting surface on NR LBDs, generally mediate the AF-2 function of NRs, the NID containing TIF2.5 should exert its dominant negative activity not only on ER, but also on other NRs, independently of the cellular context. We therefore analyzed the effect of TIF2.5 on the AF-2 activity of ER, RXRα and RARα in HeLa and in Cos-1 cells (FIGS. 12b-d).

Another data set concerns ER, RARα and RXRα LBDs. In words: GST pull-down of TIF2 polypeptides with NR LBDs. The class given is binding. The note with it: in vitro, with or without 10^−6 M ligand. How it is done: (b) Mapping of the nuclear receptor-interacting domain of TIF2.
(c-d) Interaction of TIF2 NID mutants with NRs in vitro. […] For quantification of point mutant interactions, see below.
(e-f) Effect of TIF2 NID point mutations on stimulation of NR AF-2 activity. Cos-1 cells were cotransfected with 1 μg of the (17m)5-TATA-CAT reporter, 0.2 μg of GAL-hERα(EF) or GAL-mRXRα(DE), and 2.5 μg of the TIF2.1 wildtype or mutated fragments, as indicated. […] Each bar represents the mean value obtained from at least three (interaction) or at least four (transactivation) experiments, respectively; standard deviations are indicated. Note that the absolute values for TIF2.1 wildtype activity varied by ±16% when cotransfected with GAL-hERα(EF) and by ±34% when cotransfected with GAL-mRXRα(DE). In the in-vitro-interaction assays, the affinity of the TIF2.1 wildtype standard varied by less than ±25%. Expression levels of TIF2 mutants in the cells were verified by Western blot (not shown) with mouse monoclonal antibody 3Ti3F1, which is directed against an epitope outside the mutated area.
To further delineate the TIF2 NR interaction domain (NID), we studied the interaction between a series of TIF2 deletion mutants and the ER or RARα LBDs, using GST-fusion protein-based in vitro assays. In both cases, an NWD was mapped to the central region of TIF2 (amino acids 624-869 in mutant TIF2.5; see FIGS. 7a and b). No additional NWD could be identified in the N- or C-termini of TIF2 (FIGS. 7a and b; mutants TIF2.0, TIF2.2 and TIF2.7). Note that, in contrast, SRC-1, a paralogue of TIF2, apparently harbours two distinct non-contiguous NIDs located in the central and C-terminal regions (Onate, S. A. et al., Science 270:1354-1357 (1995), Yao, T. P. et al., Proc. Natl. Acad. Sci. USA 93:10626-10631 (1996); Zhu, Y. et al., Gene Epression 6:185-195 (1996)).

A further data set concerns GAL4 reporter. In words: GAL4 DBD-TIF2 fusion CAT reporter transactivation assay. The data set is classed as cell-based. As to conditions: Cos-1 and/or HeLa cells. A digest of the protocol:
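Transiently transfected HeLa and Cos-1 cells received plasmids (3 μg; 1-10 μg in titration) expressing TIF2 regions or mutants fused to GAL4 DBD(1-147), plus 1 μg (17m)5-G-CAT reporter. CAT activity measured by TLC phosphoimaging or CAT ELISA, normalized to cotransfected β-galactosidase, expressed as fold over GAL4 DBD alone; mean of ≥3 experiments.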

For another data set, the system named is RXRα AF-2. Nature of the data set: yeast PL3 (ERE)3-URA3 reporter, OMP decase activity, RXRα. The data set is classed as cell-based, mouse. The note with it: with ligand. The source says:
(§1) FIG. 11. The TIF2.1 coactivator fragment efficiently stimulates the ligand-dependent AF-2 of ER, RAR and RXR in yeast. No stimulatory effect of TIF2.1 on the isolated AF-1 of ER (HE15) is observable. Plasmids expressing different regions of hERα (white), hRARα (grey) and mRXRα (black) fused to the ER DBD (hERα(C)) were introduced into the yeast reporter strain PL3 (α) together with TIF2.1 as indicated. […] OMP decase activities determined on each cell-free extract are expressed in nmoyrnin/mg protein; the mean and standard deviation of at least four experiments are shown.
(§2) We therefore investigated whether TIF2 could enhance transcriptional activation by various NR constructs expressed in S. cerevisiae. Both, NRs and TIF2.1 were expressed from multicopy plasmids in the yeast strain PL3 (a), which contains a URA3 reporter gene under the control of three estrogen response elements ((ERE)3-URA3; Pierrat, B. et al., Gene 119:237-245 (1992)).
(§3) In yeast, the hERa constructs were expressed from the following YEp90-based plasmids: HEGO (hERα, YEp90-HEGO, amino acids 1-595), HE15 (YEp90-HE15, amino acids 1-282), and HEG19 (YEp90-HEG19, amino acids 179-595) (all Pierrat, B. et al., Gene 119:237-245 (1992)), HE179-338 (YEp90-HE179-338; Pierrat, B. et al., Gene 143:193-200 (1994)). […]

The next data set concerns GAL-CBP. Nature of the data set: two hybrid analysis of CBP-TIF2 interaction in HeLa cells. The class given is cell-based. As to the method: (e) Two hybrid analysis of the CBP-TIF2 interaction in mammalian cells in vivo. HeLa cells were transfected with 0.2 μg of the GAL4 or GALA-CBP (expressing CBP residues 1872 to 2165) expression vectors together with 0.2 μg of the VP16 or VPI6-TF2 expression vectors in the presence of 2 μg of (17m)5-TATA-CAT reporter plasmid. Fold induction relative to the GAL-CBP activity is indicated. The mean of three experiments is shown; in each case, values varied by less than ±20%.
HeLa cells were transfected with 0.2 μg of GAL4 or GAL-CBP expression vectors together with 0.2 μg of VP16 or VP16-TIF2.13 expression vectors in the presence of 1 μg of (17m)5-TATA-CAT reporter plasmid. Data are represented as fold induction of the activity seen with GAL-CBP alone. The mean and standard, deviation obtained from ten experiments are shown. The expression levels were confirmed by Western blotting with antibodies directed against GAL4 DBD and VP16 AAD (data not shown).
(§4) Furthermore, it was reported that SRC-1, which belongs to the same gene family as TIF2, interacts with CBP and p300 (Kamei, Y. et al., Cell 85:403-414 (1996); Yao, T. P. et al., Proc. Natl. Acad. Sci. USA 93:10626-10631 (1996); Hanstein, B., et al., Proc. Natl. Acad Sci USA 93:11540-11545 (1996)). Using GST-fusion protein-based interaction and animal cell-based two hybrid assays, we therefore analyzed whether TIF2 could also interact with CBP. […] A GST-CBP fusion protein was expressed in E. coli and used for puU-down assays with in vitro translated TIF2 polypeptides (FIG. 7d).

The test system of the next data set is ER (HEGO). Nature of the data set: yeast PL3 (ERE)3-URA3 reporter, OMP decase activity, ER. The class given is cell-based, human. The note with it: with estradiol.
Excerpt: as §1, §2, §3

Data set [2] has as its system CBP (residues 1872 to 2165). In words: GST-CBP pull-down of TIF2 polypeptides. The data set is classed as binding. As to the method: (d) Mapping of the CBP-interacting domain of TIF2. GST puld own experiments were performed with ^35S-labeled in-vitro-translated TIF2 polypeptides and bacterially produced GST and GST-CBP (expressing CBP residues 1872 to 2165).
(c) Interaction of TIF2 AF-1 mutants with CBP in vitro. GST pull-down experiments were performed with ^35S-labeled in-vitro-translated GAL-TIF2 fusion proteins and bacterially produced GST and GST-CBP.
(c) Interaction of TIF2.13 wildtype and TIF2.13 mutants with CBP in vitro. GST pull-down experiments were performed with ^35S-labeled in-vitro-translated VP16-TIF2.13 polypeptides and bacterially produced GST and GST-CBP.
as §4

In a further data set the test system is RARα LBD. Nature of the data set: yeast PL3 (ERE)3-URA3 reporter, OMP decase activity, RARα. The data set is classed as cell-based, human. As to conditions: absence of ligand.
Excerpt: as §1, §2, §3

In a further data set the test system is histone. In words: histone acetylase activity of purified TIF2 fragments. The class given is biochemical. As to conditions: bacterially-expressed purified fragment. The source says:
TIF2 can apparently fulfill at least two mediator functions, (i) as a “bridging factor” between the AF-2 function of nuclear receptors and CBP via its AD1 activation domain and (ii) as a transcriptional mediator through as yet unknown CBP binding-independent route(s) via its AD2 function.

B1: TIF2.5: TIF2 fragment amino acids 624-869, isolated NID (protein)
chain: ERADGQSRLHDSKGQTKLLQLLTTKSDQMEPSPLASSLSDTNKDSTGSLPGSGSTHGTSLKEKHKILHRLLQDSSSPVDLAKLTAEATGKDLSQESSSTAPGSEVTIKQEPVSPKKKENALLRYLLDKDDTKDIGLPEITPKLERLDSKTDPASNTKLIAMKTEKEEMSFEPGDQPGSELDNLEEILDDLQNSQLPQLFPDTRPGAPAGSVDKQAIINDLMQLTAENSPVTPVGAQKTALRISQST
Regarding B1, the “effect on NR AF-2 activity” value in [1] is reported as “dose-dependent inhibition of the NR AF-2 activity”. Further, in the data set with ER, RARα and RXRα LBDs, the “binding to NRs (ER, RARα LBDs)” value is on record as “can bind to NRs”. In the data set with GAL4 reporter, the “transcriptional activation of GAL4 reporter by GAL4 DBD fusion” value is recorded as “cannot activate transcription”.

B2: TIF2.1: cytoplasmic TIF2 coactivator fragment, amino acids 624 to 1287 of SEQ ID NO:2 (protein)
chain: ERADGQSRLHDSKGQTKLLQLLTTKSDQMEPSPLASSLSDTNKDSTGSLPGSGSTHGTSLKEKHKILHRLLQDSSSPVDLAKLTAEATGKDLSQESSSTAPGSEVTIKQEPVSPKKKENALLRYLLDKDDTKDIGLPEITPKLERLDSKTDPASNTKLIAMKTEKEEMSFEPGDQPGSELDNLEEILDDLQNSQLPQLFPDTRPGAPAGSVDKQAIINDLMQLTAENSPVTPVGAQKTALRISQSTFNNPRPGQLGRLLPNQNLPLDITLQSPTGAGPFPPIRNSSPYSVIPQPGMMGNQGMIGNQGNLGNSSTGMIGNSASRPTMPSGEWAPQSSAVRVTCAATTSAMNRPVQGGMIRNPAASIPMRPSSQPGQRQTLQSQVMNIGPSELEMNMGGPQYSQQQAPPNQTAPWPESILPIDQASFASQNRQPFGSSPDDLLCPHPAAESPSDEGALLDQLYLALRNFDGLEEIDRALGIPELVSQSQAVDPEQFSSQDSNIMLEQKAPVFPQQYASQAQMAQGSYSPMQDPNFHTMGQRPSYATLRMQPRPGLRPTGLVQNQPNQLRLQLQHRLQAQQNRQPLMNQISNVSNVNLTLRPGVPTQAPINAQMLAQRQREILNQHLRQRQMHQQQQVQQRTLMMRGQGLNMTPSMVAPSGMPATMS
As for B2, the “effect on AF-2 activity of liganded RXRα” value with RXRα AF-2 is on record as “stimulated”. Moreover, the “interaction with GAL-CBP, two hybrid” value with GAL-CBP is on record as “scored positive”. Besides, in the data set with ER (HEGO), the “effect on transcriptional activity of ER” value was “further enhanced”. Further, in data set [2], the “binding to GST-CBP in vitro” value is on record as “also interacted with GST-CBP”. Besides, the “effect on transactivation by RARα LBD” value with RARα LBD is “very efficiently enhanced”. Also, the histone acetylase activity result in the data set with histone is listed as “none”. Also, the “transcriptional activation of GAL4 reporter by GAL4 DBD fusion” value with GAL4 reporter is “strongly transactivated”.
